Data taken from publication PMC3900104.

Biological target: endogenous Miro1 of COS7 cells (monkey (endogenous in COS7))
Experiment: co-IP; COS7 cells co-transfected with FLAG-TRAK1 plus Myc-DISC1 or Myc-DISC1-37W, or empty vectors; IP with Miro1 antibody (endogenous Miro1); for quantification IP buffer with 0.1% SDS

Chain of endogenous Miro1 of COS7 cells (monkey (endogenous in COS7)) (Q8IXI2 whole entry): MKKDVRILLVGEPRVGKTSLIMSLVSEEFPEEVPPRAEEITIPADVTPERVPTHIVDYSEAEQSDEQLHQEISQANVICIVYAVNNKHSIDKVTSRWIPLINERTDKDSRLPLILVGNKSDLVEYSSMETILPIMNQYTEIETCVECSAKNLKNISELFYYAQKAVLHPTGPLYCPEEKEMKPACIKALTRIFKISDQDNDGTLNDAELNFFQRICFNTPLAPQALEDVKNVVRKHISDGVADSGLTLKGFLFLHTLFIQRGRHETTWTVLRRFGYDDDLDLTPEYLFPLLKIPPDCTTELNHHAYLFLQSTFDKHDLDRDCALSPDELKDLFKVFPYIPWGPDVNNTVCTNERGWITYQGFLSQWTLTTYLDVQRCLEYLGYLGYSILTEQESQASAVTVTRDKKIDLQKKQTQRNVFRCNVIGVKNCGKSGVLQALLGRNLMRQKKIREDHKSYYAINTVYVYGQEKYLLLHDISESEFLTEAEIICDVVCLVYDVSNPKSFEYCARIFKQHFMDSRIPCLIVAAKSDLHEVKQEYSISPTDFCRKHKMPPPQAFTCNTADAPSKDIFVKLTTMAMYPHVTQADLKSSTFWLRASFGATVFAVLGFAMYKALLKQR

B1: FLAG-tagged TRAK1 (trafficking-protein-Kinesin-binding-1), aa 2-953, in COS7 (natural protein)
chain: ALVFQFGQPVRAQPLPGLCHGKLIRTNACDVCNSTDLPEVEIISLLEEQLPHYKLRADTIYGYDHDDWLHTPLISPDANIDLTTEQIEETLKYFLLCAERVGQMTKTYNDIDAVTRLLEEKERDLELAARIGQSLLKKNKTLTERNELLEEQVEHIREEVSQLRHELSMKDELLQFYTSAAEESEPESVCSTPLKRNESSSSVQNYFHLDSLQKKLKDLEEENVVLRSEASQLKTETITYEEKEQQLVNDCVKELRDANVQIASISEELAKKTEDAARQQEEITHLLSQIVDLQKKAKACAVENEELVQHLGAAKDAQRQLTAELRELEDKYAECMEMLHEAQEELKNLRNKTMPNTTSRRYHSLGLFPMDSLAAEIEGTMRKELQLEEAESPDITHQKRVFETVRNINQVVKQRSLTPSPMNIPGSNQSSAMNSLLSSCVSTPRSSFYGSDIGNVVLDNKTNSIILETEAADLGNDERSKKPGTPGTPGSHDLETALRRLSLRRENYLSERRFFEEEQERKLQELAEKGELRSGSLTPTESIMSLGTHSRFSEFTGFSGMSFSSRSYLPEKLQIVKPLEGSATLHHWQQLAQPHLGGILDPRPGVVTKGFRTLDVDLDEVYCLNDFEEDDTGDHISLPRLATSTPVQHPETSAHHPGKCMSQTNSTFTFTTCRILHPSDELTRVTPSLNSAPTPACGSTSHLKSTPVATPCTPRRLSLAESFTNTRESTTTMSTSLGLVWLLKERGISAAVYDPQSWDRAGRGSLLHSYTPKMAVIPSTPPNSPMQTPTSSPPSFEFKCTSPPYDNFLASKPASSILREVREKNVRSSESQTDVSVSNLNLVDKVRRFGVAKVVNSGRAHVPTLTEEQGPLLCGPPGPAPALVPRGLVPEGLPLRCPTVTSAIGGLQLNSGIRRNRSFPTMVGSSMQMKAPVTLTSGILMGAKLSKQTSLR
**Q.** Which decrease of co-IP in cells expressing Myc-DISC1-37W against cells expressing Myc-DISC1 does the source give for B1 here?
**A.** 20%
